In patent US11912763 (dated 2024):
Where “and” joins values, the source holds several entries; their conditions need not be identical. Equal entries are not always repeated. Where two headings read alike, the source gives them in different places.

How the values were obtained:
human CLDN18.1 [1] = biological target: T1, human CLDN18.1 (human, UniProt P56856); assay: ELISA
T1 chain: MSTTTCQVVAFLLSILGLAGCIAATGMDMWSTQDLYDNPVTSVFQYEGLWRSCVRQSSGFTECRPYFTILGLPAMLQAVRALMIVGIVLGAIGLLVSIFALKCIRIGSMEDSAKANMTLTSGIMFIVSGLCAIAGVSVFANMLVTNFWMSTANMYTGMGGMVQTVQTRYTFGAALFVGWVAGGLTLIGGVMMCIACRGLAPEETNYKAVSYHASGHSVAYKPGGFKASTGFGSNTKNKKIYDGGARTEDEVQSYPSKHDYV

human CLDN18.2 [2] = biological target: T2, human CLDN18.2 (human, UniProt P56856); assay: ELISA
human CLDN18.2 [3] = biological target: T2, human CLDN18.2; assay: ELISA; remark: listed apart in the source
human CLDN18.2 [4] = biological target: T2, human CLDN18.2; assay: ELISA; remark: listed apart in the source
human CLDN18.2 [5] = biological target: T2, human CLDN18.2; assay: KinExA
human CLDN18.2 [6] = biological target: T2, human CLDN18.2; assay: ELISA; remark: listed apart in the source
human CLDN18.2 [7] = biological target: T2, human CLDN18.2; assay: ELISA; remark: listed apart in the source
mouse CLDN18.2 [8] = biological target: T3, mouse CLDN18.2 (mouse, UniProt P56857); assay: ELISA
T3 chain: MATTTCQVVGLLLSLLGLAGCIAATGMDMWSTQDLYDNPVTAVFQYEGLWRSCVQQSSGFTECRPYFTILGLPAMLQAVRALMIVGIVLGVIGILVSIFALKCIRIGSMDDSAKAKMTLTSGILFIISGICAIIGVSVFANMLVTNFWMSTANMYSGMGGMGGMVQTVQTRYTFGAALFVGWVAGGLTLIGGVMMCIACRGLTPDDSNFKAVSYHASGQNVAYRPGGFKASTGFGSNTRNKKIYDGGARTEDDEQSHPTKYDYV

human CLDN18.2 [9] = biological target: T2, human CLDN18.2; assay: ELISA; remark: listed apart in the source
human CLDN18.2 [10] = biological target: T2, human CLDN18.2; assay: ELISA; remark: listed apart in the source
human CLDN18.2 [11] = biological target: T2, human CLDN18.2; assay: ELISA; remark: listed apart in the source
human CLDN18.2 [12] = biological target: T2, human CLDN18.2; assay: ELISA; remark: listed apart in the source
human CLDN18.2 [13] = biological target: T2, human CLDN18.2; assay: ELISA; remark: listed apart in the source
human CLDN18.2 [14] = biological target: T2, human CLDN18.2; assay: ELISA; remark: listed apart in the source
human CLDN18.2 [15] = biological target: T2, human CLDN18.2; assay: ELISA, serum 0 h
human CLDN18.2 [16] = biological target: T2, human CLDN18.2; assay: ELISA, serum 72 h
human CLDN18.2 [17] = biological target: T2, human CLDN18.2; assay: ELISA, serum 24 h
mouse CLDN18.2 [18] = biological target: T3, mouse CLDN18.2; assay: ELISA
human CLDN18.1 [19] = biological target: T1, human CLDN18.1; assay: ELISA
human CLDN18.2 [20] = biological target: T2, human CLDN18.2; assay: ELISA, after 14 days at 37C

B1: Ab10 (antibody)
chain 1: QVQLVQSGAEVKKPGSSVKVSCKASGYAFSNYLIEWVKQAPGQGLEWIGLINPGSGGTNYNEKFKGKATITADKSTSTAYMELSSLRSEDTAVYYCARVYYGNSFAYWGQGTLVTVSS
chain 2: DIVMTQSPDSLAVSLGERATISCKSSQSLLNSGNQKNYLTWYQQKPGQPPKLLIYWASTRESGVPDRFSGSGSGTDFTLTISSLQAEDVAVYYCQNDYFYPFTFGQGTKLEIK
- binding result (human CLDN18.1 [1]): no binding
- EC50 (human CLDN18.2 [2]): 0.42 nM
- EC50 (human CLDN18.2 [3]): 0.164 nM
- EC50 (human CLDN18.2 [4]): 0.117 nM
- Kd (human CLDN18.2 [5]): 0.0133 nM
- EC50 (human CLDN18.2 [6]): 0.157 nM
- EC50 (human CLDN18.2 [7]): 0.38 nM
- EC50 (mouse CLDN18.2 [8]): 0.371 nM
- EC50 (human CLDN18.2 [9]): 0.208 nM
- EC50 (human CLDN18.2 [10]): 0.2 nM
- EC50 (human CLDN18.2 [11]): 0.51 nM
- EC50 (human CLDN18.2 [12]): 0.151 nM
- EC50 (human CLDN18.2 [13]): 0.36 nM and 0.69 nM
- EC50 (human CLDN18.2 [14]): 0.69 nM

B2: LB155 CLDN18.2 arm (antibody)
chain 1: QVQLVQSGAEVKKPGSSVKVSCKASGYAFSNYLIEWVKQAPGQGLEWIGLINPGSGGTNYNEKFKGKATITADKSTSTAYMELSSLRSEDTAVYYCARVYYGNSFAYWGQGTLVTVSS
chain 2: DIVMTQSPDSLAVSLGERATISCKSSQSLLNSGNQKNYLTWYQQKPGQPPKLLIYWASTRESGVPDRFSGSGSGTDFTLTISSLQAEDVAVYYCQNDYFYPFTFGQGTKLEIK
- EC50 (human CLDN18.2 [13]): 0.59 nM

B3: LB432 CLDN18.2 arm (antibody)
chain 1: QVQLVQSGAEVKKPGSSVKVSCKASGYAFSNYLIEWVKQAPGQGLEWIGLINPGSGGTNYNEKFKGKATITADKSTSTAYMELSSLRSEDTAVYYCARVYYGNSFAYWGQGTLVTVSS
chain 2: DIVMTQSPDSLAVSLGERATISCKSSQSLLNSGNQKNYLTWYQQKPGQPPKLLIYWASTRESGVPDRFSGSGSGTDFTLTISSLQAEDVAVYYCQNDYFYPFTFGQGTKLEIK
- EC50 (human CLDN18.2 [7]): 0.74 nM
- EC50 (human CLDN18.2 [15]): 0.357 nM
- EC50 (human CLDN18.2 [16]): 1.2 nM
- EC50 (human CLDN18.2 [17]): 0.535 nM

B4: Ab35 (antibody, V domains shown)
VH: QVQLVQSGAEVKKPGSSVKVSCKASGYAFSNYLIEWVKQAPGQGLEWIGLINPGSGGTNYNEKFKGKATITADKSTSTAYMELSSLRSEDTAVYYCARVYYGNTFAYWGQGTLVTVSS
VL: DIVMTQSPDSLAVSLGERATISCKSSQSLLNTGNQKNYLTWYQQKPGQPPKLLIYWASTRESGVPDRFSGSGSGTDFTLTISSLQAEDVAVYYCQNDYFYPFTFGQGTKLEIK
- EC50 (human CLDN18.2 [9]): 62.1 nM
- binding result (mouse CLDN18.2 [18]): no binding

B5: Ab7 (antibody, V domains shown)
VH: QVQLVQSGAEVKKPGSSVKVSCKASGYAFSNYLIEWVKQAPGQGLEWIGLINPGSGGTNYNEKFKGKATITADKSTSTAYMELSSLRSEDTAVYYCARVYYGNSFAYWGQGTLVTVSS
VL: DIVMTQSPDSLAVSLGERATISCKSSQSLLNSGNQKNYLTWYQQKPGQPPKLLIYWASTRESGVPDRFSGSGSGTHFTLTISSLQAEDVAVYYCQNDYFYPFTFGQGTKLEIKR
- binding result (human CLDN18.1 [1]): no binding
- EC50 (human CLDN18.2 [4]): 0.282 nM

B6: Ab36 (antibody, V domains shown)
VH: QVQLVQSGAEVKKPGSSVKVSCKASGYAFSNYLIEWVKQAPGQGLEWIGLINPGSGGTNYNEKFKGKATITADKSTSTAYMELSSLRSEDTAVYYCARVYYGNTFAYWGQGTLVTVSS
VL: DIVMTQSPDSLAVSLGERATISCKSSQSLLNTGNNKNYLAWYQQKPGQPPKLLIYWASTRESGVPDRFSGSGSGTDFTLTISSLQAEDVAVYYCQNDYFYPFTFGQGTKLEIK
- EC50 (mouse CLDN18.2 [8]): 0.518 nM
- EC50 (human CLDN18.2 [9]): 0.211 nM

B7: LB195 CLDN18.2 arm (antibody)
chain 1: QVQLVQSGAEVKKPGSSVKVSCKASGYAFSNYLIEWVKQAPGQGLEWIGLINPGSGGTNYNEKFKGKATITADKSTSTAYMELSSLRSEDTAVYYCARVYYGNSFAYWGQGTLVTVSS
chain 2: DIVMTQSPDSLAVSLGERATISCKSSQSLLNSGNQKNYLTWYQQKPGQPPKLLIYWASTRESGVPDRFSGSGSGTDFTLTISSLQAEDVAVYYCQNDYFYPFTFGQGTKLEIK
- EC50 (human CLDN18.2 [13]): 0.5 nM

B8: Ab9 (antibody, V domains shown)
VH: QVQLVQSGAEVKKPGSSVKVSCKASGYAFSNYLIEWVKQAPGQGLEWIGLINPGSGGTNYNEKFKGKATLTADKSTSTAYMELSSLRSEDTAVYFCARVYYGNSFAYWGQGTLVTVSS
VL: DIVMTQSPDSLAVSLGERATISCKSSQSLLNSGNQKNYLTWYQQKPGQPPKLLIYWASTRESGVPDRFSGSGSGTHFTLTISSLQAEDVAVYYCQNDYFYPFTFGQGTKLEIKR
- binding result (human CLDN18.1 [1]): no binding
- EC50 (human CLDN18.2 [4]): 0.339 nM

B9: ADC2 (antibody)
chain 1: QVQLVQSGAEVKKPGSSVKVSCKASGYAFSNYLIEWVKQAPGQGLEWIGLINPGSGGTNYNEKFKGKATITADKSTSTAYMELSSLRSEDTAVYYCARVYYGNSFAYWGQGTLVTVSS
chain 2: DIVMTQSPDSLAVSLGERATISCKSSQSLLNSGNQKNYLTWYQQKPGQPPKLLIYWASTRESGVPDRFSGSGSGTDFTLTISSLQAEDVAVYYCQNDYFYPFTFGQGTKLEIK
modifications: Ab10 MC-VC-PAB-MMAF conjugate
- EC50 (human CLDN18.2 [3]): 0.31 nM

B10: Ab6 (antibody, V domains shown)
VH: QVQLVQSGAEVKKPGSSVKVSCKASGYAFSNYLIEWVKQAPGQGLEWIGLINPGSGGTNYNEKFKGKATITADKSTSTAYMELSSLRSEDTAVYYCARVYYGNSFAYWGQGTLVTVSS
VL: DIVMTQSPDSLAVSLGERATISCKSSQSLLNSGNNKNYLAWYQQKPGQPPKLLIYWASTRESGVPDRFSGSGSGTDFTLTISSLQAEDVAVYYCQNDYFYPFTFGQGTKLEIK
- EC50 (mouse CLDN18.2 [8]): 0.594 nM
- EC50 (human CLDN18.2 [9]): 0.22 nM
- binding result (human CLDN18.1 [19]): no binding
- EC50 (human CLDN18.2 [10]): 0.222 nM

B11: Ab8 (antibody, V domains shown)
VH: QVQLVQSGAEVKKPGSSVKVSCKASGYAFSNYLIEWVKQAPGQGLEWIGLINPGSGGTNYNEKFKGKATLTADKSTSTAYMELSSLRSEDTAVYFCARVYYGNSFAYWGQGTLVTVSS
VL: DIVMTQSPDSLAVSLGERATISCKSSQSLLNSGNQKNYLTWYQQKPGQPPKLLIYWASTRESGVPDRFSGSGSGTDFTLTISSLQAEDVAVYYCQNDYFYPFTFGQGTKLEIKR
- binding result (human CLDN18.1 [1]): no binding
- EC50 (human CLDN18.2 [4]): 0.227 nM

B12: ADC1 (antibody)
chain 1: QVQLVQSGAEVKKPGSSVKVSCKASGYAFSNYLIEWVKQAPGQGLEWIGLINPGSGGTNYNEKFKGKATITADKSTSTAYMELSSLRSEDTAVYYCARVYYGNSFAYWGQGTLVTVSS
chain 2: DIVMTQSPDSLAVSLGERATISCKSSQSLLNSGNQKNYLTWYQQKPGQPPKLLIYWASTRESGVPDRFSGSGSGTDFTLTISSLQAEDVAVYYCQNDYFYPFTFGQGTKLEIK
modifications: Ab10 SMCC-DM1 conjugate
- EC50 (human CLDN18.2 [3]): 0.344 nM

B13: Ab15 (antibody, V domains shown)
VH: QVQLVQSGAEVKKPGSSVKVSCKASGYAFSNYLIEWVKQAPGQGLEWIGLINPGSGGTNYNEKFKGKATITADKSTSTAYMELSSLRSEDTAVYYCARVYYGNSFAYWGQGTLVTVSS
VL: DIVMTQSPDSLAVSLGERATINCKSSQSLLNSGNNKNYLAWYQQKPGQPPKLLIYWASTRESGVPDRFSGSGSGTDFTLTISSLQAEDVAVYYCQNDYFYPFTFGQGTKLEIKR
- binding result (human CLDN18.1 [19]): no binding
- EC50 (human CLDN18.2 [10]): 0.219 nM

B14: LB321 CLDN18.2 arm (antibody)
chain 1: QVQLVQSGAEVKKPGSSVKVSCKASGYAFSNYLIEWVKQAPGQGLEWIGLINPGSGGTNYNEKFKGKATITADKSTSTAYMELSSLRSEDTAVYYCARVYYGNSFAYWGQGTLVTVSS
chain 2: DIVMTQSPDSLAVSLGERATISCKSSQSLLNSGNQKNYLTWYQQKPGQPPKLLIYWASTRESGVPDRFSGSGSGTDFTLTISSLQAEDVAVYYCQNDYFYPFTFGQGTKLEIK
- EC50 (human CLDN18.2 [6]): 0.99 nM
- EC50 (human CLDN18.2 [20]): 10.1 nM
- EC50 (human CLDN18.2 [12]): 0.366 nM
